The target in series [1] is T1, Human serum albumin (HSA) (Homo sapiens, UniProt P02768 P02768:25-609). Briefly: ELAA, 0.5 uM aptamer, 0.2 uM protein. The conditions noted are these: tags: Sigma-Aldrich; label: biotin; stem-loops, B-form-like CD. The protocol:
(§1) Enzyme-linked aptamer assays with typical black opaque 96-well polystyrene microtiter plates that resembled ELISA assays were carried out for (1) assessment of the affinity and specificity of the selected AMACR binding aptamers and (2) proof-of-concept fluorescent AMACR detection using aptamers. For the first task, varied concentrations of aptamers were tested with a constant protein concentration ([…]); for the second task, varied concentrations of proteins were detected using a constant aptamer concentration (500 nM). Both used the following ELAA protocol unless otherwise noted. For protein coating, AMACR diluted in 0.05 M sodium carbonate buffer (pH9.6) was added to the wells of the plates (100 μL/well) and incubated at 4° C. overnight. After incubation, the wells were washed three times with 200 μL/well of selection buffer containing 0.05% Tween 20. For blocking, each AMACR-coated well was added with 200 μL of 3 wt % BSA in the selection buffer containing 0.05% Tween 20 and was then incubated at 37° C. for 2 h. Afterward, wells were washed as previously described. Before protein assays, biotin-labeled aptamer sequences were suspended in the selection buffer, heated to 95° C. for 5 min, and gradually cooled to 25° C. Then each protein-coated well was added with 100 μL of aptamer solution (in the selection buffer) and was incubated at room temperature for 1 h followed by the same wash procedure. After that, each well was added with two drops (ca. 100 μL) of an alkaline phosphatase-conjugated streptavidin (Strep-AP) solution (0.003 mg/mL) (Abcam) and incubated at room temperature for 30 min followed by the washes. For fluorescent signal development, each well was added with 100 μL of AttoPhos® AP fluorescent substrate solution (Promega) and incubated in dark for at least 15 min. Finally, the fluorescent signal of each well was read by a fluorescent microplate reader (excitation at 435 nm and emission at 555 nm).
(§2) FIG. 5A represented the results of the equilibrium AMACR total binding assays using the fluorescent ELAA format for AMC51, AMC55, and AMC56.

Series [2] deals with Bovine serum albumin (BSA) (Bos taurus, UniProt P02769 P02769:25-607). Briefly: ELAA, 0.5 uM aptamer, 0.2 uM protein. As to conditions: tags: Sigma-Aldrich; label: biotin; stem-loops, B-form-like CD. The protocol:
as §1, §2

Series [3] has as its target T2, AMACR (alpha-methylacyl-CoA racemase, isoform CRA_c), homemade recombinant (Homo sapiens, UniProt Q9UHK6 Q9UHK6:1-382).
T2 sequence: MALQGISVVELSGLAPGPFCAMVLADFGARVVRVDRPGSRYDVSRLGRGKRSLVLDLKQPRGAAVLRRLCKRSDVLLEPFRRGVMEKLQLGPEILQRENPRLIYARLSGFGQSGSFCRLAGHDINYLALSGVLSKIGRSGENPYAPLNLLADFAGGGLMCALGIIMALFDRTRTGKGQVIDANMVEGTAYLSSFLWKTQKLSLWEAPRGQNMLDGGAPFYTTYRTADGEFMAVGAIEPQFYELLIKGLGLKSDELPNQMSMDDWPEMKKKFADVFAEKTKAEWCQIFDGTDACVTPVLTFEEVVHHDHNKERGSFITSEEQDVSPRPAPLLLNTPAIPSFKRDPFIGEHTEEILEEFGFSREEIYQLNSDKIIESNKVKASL
Briefly: apparent Kd; fluorescent ELAA, same buffer, room temperature. The conditions noted are these: label: biotin; stem-loops, B-form-like CD. The protocol: as §1, with “Then each protein-coated well was added with 100 μL of aptamer solution (in the selection buffer) and was incubated at room temperature for 1 h followed by the same wash procedure. After that, each well was added with two drops (ca. 100 μL) of an alkaline phosphatase-conjugated streptavidin (Strep-AP) solution (0.003 mg/mL) (Abcam) and incubated at room temperature for 30 min followed by the washes. For fluorescent signal development, each well was added with 100 μL of AttoPhos® AP fluorescent substrate solution (Promega) and incubated in dark for at least 15 min.” left out, “nm). […]” for “nm).”

The target of series [4] is T1, Human serum albumin (HSA). Briefly: ELAA, 0.5 uM aptamer, 0.2 uM protein; also no significant cross-reactivity in FIG. 6 dose series. As to conditions: tags: Sigma-Aldrich; label: biotin; stem-loops, B-form-like CD. The protocol: as §1, with “Then each protein-coated well was added with 100 μL of aptamer solution (in the selection buffer) and was incubated at room temperature for 1 h followed by the same wash procedure. After that, each well was added with two drops (ca. 100 μL) of an alkaline phosphatase-conjugated streptavidin (Strep-AP) solution (0.003 mg/mL) (Abcam) and incubated at room temperature for 30 min followed by the washes. For fluorescent signal development, each well was added with 100 μL of AttoPhos® AP fluorescent substrate solution (Promega) and incubated in dark for at least 15 min.” left out, “nm). […]” for “nm).”

The target of series [5] is T2, AMACR (alpha-methylacyl-CoA racemase, …). Briefly: apparent Kd; fluorescent ELAA, AMACR coated at 0.2 uM; 50 mM Tris/HCl, 100 mM NaCl, 4 mM KCl, 2.5 mM MgCl2, 1 mM CaCl2, pH 7.4, room temperature. As to conditions: label: biotin; stem-loops, B-form-like CD. As to the method:
as §1, with “Then each protein-coated well was added with 100 μL of aptamer solution (in the selection buffer) and was incubated at room temperature for 1 h followed by the same wash procedure. After that, each well was added with two drops (ca. 100 μL) of an alkaline phosphatase-conjugated streptavidin (Strep-AP) solution (0.003 mg/mL) (Abcam) and incubated at room temperature for 30 min followed by the washes. For fluorescent signal development, each well was added with 100 μL of AttoPhos® AP fluorescent substrate solution (Promega) and incubated in dark for at least 15 min.” left out, “nm). […]” for “nm).”

Bovine serum albumin (BSA), sequence (P02769 25-607, one chain of several): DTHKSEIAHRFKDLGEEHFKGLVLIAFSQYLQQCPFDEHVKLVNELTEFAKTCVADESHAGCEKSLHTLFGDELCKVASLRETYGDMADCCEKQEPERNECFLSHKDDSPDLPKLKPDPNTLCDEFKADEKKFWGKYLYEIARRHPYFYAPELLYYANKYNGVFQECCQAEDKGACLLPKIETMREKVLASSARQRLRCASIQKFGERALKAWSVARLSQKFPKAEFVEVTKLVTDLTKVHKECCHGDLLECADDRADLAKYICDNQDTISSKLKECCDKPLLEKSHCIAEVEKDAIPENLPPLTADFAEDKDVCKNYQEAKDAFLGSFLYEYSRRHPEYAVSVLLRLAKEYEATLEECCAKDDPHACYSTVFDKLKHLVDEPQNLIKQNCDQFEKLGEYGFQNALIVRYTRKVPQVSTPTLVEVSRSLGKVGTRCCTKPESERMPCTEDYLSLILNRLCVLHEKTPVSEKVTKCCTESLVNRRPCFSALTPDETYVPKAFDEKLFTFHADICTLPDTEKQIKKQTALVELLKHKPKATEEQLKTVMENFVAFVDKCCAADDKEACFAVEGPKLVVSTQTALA
T1 sequence (P02768 25-609, one chain of several): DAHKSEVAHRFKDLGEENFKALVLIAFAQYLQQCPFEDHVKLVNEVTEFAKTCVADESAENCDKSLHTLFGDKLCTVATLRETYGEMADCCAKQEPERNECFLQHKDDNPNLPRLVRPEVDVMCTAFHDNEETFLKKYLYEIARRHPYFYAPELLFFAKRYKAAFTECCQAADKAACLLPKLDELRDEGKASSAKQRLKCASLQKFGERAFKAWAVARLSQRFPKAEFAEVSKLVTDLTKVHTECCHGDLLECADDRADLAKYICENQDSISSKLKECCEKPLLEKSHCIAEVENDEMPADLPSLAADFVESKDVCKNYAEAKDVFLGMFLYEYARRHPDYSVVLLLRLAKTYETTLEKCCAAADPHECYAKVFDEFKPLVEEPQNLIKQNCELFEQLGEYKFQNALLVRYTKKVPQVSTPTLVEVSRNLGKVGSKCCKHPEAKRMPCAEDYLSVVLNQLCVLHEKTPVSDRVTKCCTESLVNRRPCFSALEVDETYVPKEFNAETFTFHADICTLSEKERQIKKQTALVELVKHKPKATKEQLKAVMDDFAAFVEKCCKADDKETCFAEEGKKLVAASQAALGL

B1: AMC55 (ssDNA)
DNA: CCCTACGGCGCTAACCAGTATGTTCCGGATTGGAGAGCTCCTGTTGCCACCGTGCTACAA
For B1, the binding result in series [1] and in series [2] was “no binding” throughout. In series [3], the Kd was 0.139 µM.

B2: AMC56 (ssDNA)
DNA: CCCTACGGCGCTAACCCAGCTACTCTAGAACCCATTATATTTTGGGCCACCGTGCTACAA
For the molecule B2, the binding result in series [1] and in series [2] was “no binding” throughout. In addition, the Kd in series [3] came out at 0.065 µM.

B3: AMC51 (ssDNA)
DNA: CCCTACGGCGCTAACCCATGCTACGAATTCGTTGTTAAACAATAGGCCACCGTGCTACAA
In the case of B3, the binding result in series [2] and in series [4] was “no binding” throughout. The Kd in series [5] worked out at 0.049 µM.

The values are drawn from patent publication US20160177397, “APTAMER FOR DETECTION OF ALPHA-METHYLACYL-COA RACEMASE AND DIAGNOSTIC KIT THEREOF” (NATIONAL TAIWAN UNIVERSITY, published 2016).
